Where a chain is given by its changes, count along the chain named.
T1: ARG2 from CCM of LNCaP, A673 and A2780-Cis (Homo sapiens, UniProt P78540)
T1 construct: ARG2 is released into the CCM from LNCaP, A673 and A2780-Cis cell lines; endogenous in cells; host or cells: cell conditioned medium of cancer cell lines (LNCaP, A673, A2780-Cis and others)
T1 sequence (P78540 23-354): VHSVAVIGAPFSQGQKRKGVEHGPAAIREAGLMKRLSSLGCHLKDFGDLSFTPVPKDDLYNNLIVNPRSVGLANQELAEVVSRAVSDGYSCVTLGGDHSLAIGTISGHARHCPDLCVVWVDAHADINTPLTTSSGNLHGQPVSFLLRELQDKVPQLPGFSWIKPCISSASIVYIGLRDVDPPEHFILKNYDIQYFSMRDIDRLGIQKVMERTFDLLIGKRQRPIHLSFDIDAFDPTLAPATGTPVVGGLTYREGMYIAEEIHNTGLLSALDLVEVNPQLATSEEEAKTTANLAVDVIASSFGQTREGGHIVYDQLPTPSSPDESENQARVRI

T2: human ARG2 (Homo sapiens, UniProt P78540)
T2 construct: made in house
T2 sequence (P78540 with tags, fused parts or gaps): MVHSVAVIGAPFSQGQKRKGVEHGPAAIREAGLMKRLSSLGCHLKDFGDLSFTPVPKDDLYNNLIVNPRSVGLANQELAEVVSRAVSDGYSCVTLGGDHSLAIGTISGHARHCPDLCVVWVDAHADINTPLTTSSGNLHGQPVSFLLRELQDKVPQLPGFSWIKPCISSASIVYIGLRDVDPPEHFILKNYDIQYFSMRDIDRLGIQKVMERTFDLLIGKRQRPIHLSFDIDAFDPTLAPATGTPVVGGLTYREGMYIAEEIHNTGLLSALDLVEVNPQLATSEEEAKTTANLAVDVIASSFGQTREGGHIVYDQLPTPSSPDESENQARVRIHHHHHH

B1: C0021061: anti-ARG2 antibody, first generation lead, VH SEQ ID NO: 62, VL SEQ ID NO: 67 (antibody, listed as Homo sapiens, V domains shown)
VH: EVQLLESGGGLVQPGGSLRLSCAASGFTFSSYAMSWVRQAPGKGLEWVSAKPTDAGSTYYADSVKGRFTISRDNSKNTLYLQMNSLRAEDTAVYYCARLRADLGLYMDLWGRGTLVTVSS
VL: QSVLTQPPSVSAAPGQKVTISCSGSSSNIGNHYVSWYQQLPGTAPKLLIYNTVYPKSGIPDRFSGSKSGTSATLGITGLQTGDEADYYCGTWDSSLSALVFGGGTKLTVL
modifications: C0021061
B2: C0021158: anti-ARG2 antibody, second generation lead, VH SEQ ID NO: 272, VL SEQ ID NO: 277 (antibody, listed as Homo sapiens, V domains shown)
VH: EVQLLESGGGLVQPGGSLRLSCAASGFTFRYEVAAWVRQAPGKGLEWVSAISGPIPKGYYADSVKGRFTISRDNSKNTLYLQMNSLRAEDTAVYYCARLRADLGLYMDLWGRGTLVTVPS
VL: QSVLTQPPSVSAAPGQKVTISCSGSSSNIGNHYVSWYQQLPGTAPKLLIYDNSERTAGVPDRFSGSKSGTSATLGITGLQTGDEADYYCGTWDELTSNLVFGGGTKLTVL
modifications: C0021158
B3: C0021181: anti-ARG2 antibody, VH SEQ ID NO: 342, VL SEQ ID NO: 347 (antibody, listed as Homo sapiens, V domains shown)
VH: EVQLLESGGGLVRPGGSLRLSCAASEFTFRYDYHVWVRQAPGKGLEWVSAISGSGGSTYYADSVKSRFTISRDNSKNTLYLQMNSLRAEDTAVYYCARLRADLGLYMDLWGRGTLVTVSS
VL: B2 VL with T19A, I20V, N31S, A57S, V59I, K106R
modifications: C0021181

Columns and labels:
[1] = target: T1, ARG2 from CCM of LNCaP, A673 and A2780-Cis; assay: ELISA binding to ARG2 from CCM of cancer cell lines; settings: biotinylated IgG at 10 μg/ml as detection antibody, FIG. 18
Text: In this experiment the presence of ARG2 in CCM samples was validated using commercial ARG2 ELISA kit (Cloud-Clone Corp., cat. SED796Hu). Additionally, the protocol was modified to include 1st generation IgG C0021061 and 2nd generation IgG C0021158 as detection antibodies to confirm binding of ARG2 IgG's to ARG2 expressed from cancer cell lines (FIG. 18).
The commercial kit is a 96-well plate pre-coated with anti-ARG2, which uses sandwich ELISA to quantify ARG2 in samples. Standards, biotinylated detection antibody, detection, substrate, and stop reagents are all provided in the kit. […] 100 μl of diluted CCM/media control was used for each well of kit and ELISA was performed following manufacturer's protocol. Each sample was run in duplicate. In parallel, CCM/media control samples were also included to test for binding of C0021061 and C0021158 to ARG2 in CCM samples. […] At the end of the assay, absorbance at 450 nm was read out on PheraStar (BMG). The absorbance values of standards were used to make standard curve and was used to interpolate ARG2 levels in CCM samples (where PAD detection antibody supplied with the kit was used). Similarly, absorbance reads from wells that received C0021061 and C0021158 were used to […] and 2nd generation ARG2 IgGs (C0021061 and C0021158 respectively) bind to ARG2 in CCM samples (FIG. 18).

[2] = target: T2, human ARG2; assay: X-ray co-crystal structures of ARG2-Fab complexes, buried surface area of epitope residues; settings: total of interface residues
Experimental: The construct used for crystal trials was ARG2 (23-354) containing a C-terminal Gly3 linker and His10-tag (ARG2+C0020187, SEQ ID NO: 355: huARG2-His10) or a simple C-terminal His6-tag (ARG2+C0021181 and ARG2+C0021158, SEQ ID NO: 357: huARG2-His6). Crystals suitable for structure determination were obtained using the sitting drop methodology. For ARG2+C0020187, 0.2 μl of complex solution (2.0 mg/ml, ARG2:Fab=3:1, purified by gel filtration) were mixed with 0.1 μl of crystallisation solution containing 2 M (NH4)2SO4. Round, disc-shaped crystals (60×60×20 μm) appeared after 2 days. For ARG2+C0021181, 0.5 μl of complex solution (6.3 mg/ml) were mixed with 0.5 μl of a crystallisation solution containing 100 mM MMT (malic acid:MES:tris=1:2:2) pH 5.0, 20% glycerol, 10% PEG4000, 15 mM NaNO3, 15 mM Na2HPO4, 15 mM (NH4)2SO4. Hexagonal disc-shaped crystals (100×100×20 μm) appeared after 2 days and reached their final size after a week. For ARG2+C0021158, 0.25 μl of complex solution (7.0 mg/ml, containing 20% diluted microseeds of an ARG2+C0021181 crystal) were mixed with 0.25 μl of a crystallisation solution containing 2 M (NH4)2SO4. Crystals of irregular shape (60×60×60 μm) appeared after 2 days. For the ARG2+C0020187 and ARG2+C0021158 crystals, 3 M (NH4)2SO4 and 5% glycerol were added for cryo-protection, after which the crystals were cryo-cooled by plunging them into liquid N2. Data sets were collected at DLS, beamline i04-1 (ARG2+C0020187) or BESSY II, HZB, beamline MX-14-1 (ARG2+C0021181 and ARG2+C0021158). The crystals of ARG2+C0020187 diffracted up to 3.25 Å in space group P 65 2 2 with unit cell parameters a=b=138 Å, c=551 Å.
The structures were solved by molecular replacement using Phaser in the CCP4 program suite using the reported structure of ARG2 (PDB-ID 4HZE) and previously solved high-resolution structures of the individual Fabs in the molecular replacement search. For ARG2+C0020187 the asymmetric unit contained three copies each of ARG2 and the Fab, respectively, with the CL and CH domains being present in different orientations, one of pair which was poorly defined in the electron density. For ARG2+C0021181 and ARG2+C0021158 the asymmetric units contained one copy of ARG2 and one copy of the Fab, however for ARG2+C0021181 only the VL and VH domains of the Fab were well defined, with CL and CH domains most likely being present in two orientations (reflected by the increased B factor and overall worse electron density). Automated and manual refinement was then performed by alternating between using REFMAC5 (with twin- and TLS refinement turned on towards finalising the structures for ARG2+C0021181 and ARG2+C0021158) and COOT, respectively. […]

Molecule | binding to ARG2 from CCM of LNCaP, A673 and A2780-Cis (ELISA) [1] | % buried ([2]; C0021158 complex) [%] | ASA (solvent accessible surface area) ([2]; C0021158 complex) [Å^2] | BSA (buried surface area) ([2]; C0021158 complex) [Å^2] | % buried ([2]; C0021181 complex) [%]
B1 | binding |  |  |  | 
B2 | binding | 50 | 2012.6 | 1000.3 | 
B3 |  |  |  |  | 50

From patent publication US20220403048A1, “BINDING MOLECULES TO ARGINASE II [ARG2]” (Cancer Research Technology Limited, priority 2019, published 2022)
